Kd data for two molecules are collected here from patent US20200206371A1 (WAYNE STATE UNIVERSITY, published 2020).

Experiment [1] has as its target T1, murine IFN-γ (recombinant IFN-γ) (mouse, UniProt P01580 23-155).
T1 construct: AN-18 is described as a rat mAb to murine IFN-γ; also called rIFN-γ; interferon gamma
T1 sequence (looked up): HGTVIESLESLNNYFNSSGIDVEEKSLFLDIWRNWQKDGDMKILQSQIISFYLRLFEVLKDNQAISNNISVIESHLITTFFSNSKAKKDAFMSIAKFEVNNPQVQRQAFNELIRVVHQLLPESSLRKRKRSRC
As to the kind of experiment: Octet (BLI); format not stated; diabody (scFv homodimer), not full-length antibody.

In experiment [2] the target is T1, murine IFN-γ (recombinant IFN-γ). As to the kind of experiment: Octet (BLI); format not stated; full-length AN18, not diabody. A general note: BLI is a label-free optical method that tracks binding on a fibre tip over time.

With “anti-IFN-γ diabody (homodimer of the single chain Fv derived from anti-IFNγ clone AN18, made in CHO cells)”, in experiment [1], the Kd (in general, the free concentration of one partner at which half of the binding sites on the other are occupied at equilibrium, for simple one-to-one binding) stood at 37.9 nM.

B1: AN-18 (anti-IFNγ, rat IgG1, kappa, eBioscience), full-length (antibody, V domains shown)
VH: QVQLKESGPGLVQPSQTLSLTCTVSGFSLDSYNVHWVRQPPGKGLEWMGRMKYNGDTSYNSALKSRLRISRDTSKNQVFLKMNSLQTDDTGTYYCTRDWHYGYPSPYFEFWGQGVMVTVSS
VL: DVQMTQSPSYLAASPGESVSISCKASKNINTYLAWYQEKPGKTNKLLIYSGSTLQSGTPSRFSGSGSGTDFTLTIRSLEPEDFAVYYCQQHNEYPLTFGSGTKLEVKR
notes: Bought rat IgG1, kappa monoclonal antibody; also called full-length AN18; anti-mouse IFN-γ mAb clone AN-18
Regarding B1, the Kd in experiment [2] was 28.2 nM.
